Ten molecules from PMC10009750, “Development of Selective ADAMTS-5 Peptide Substrates to Monitor Proteinase Activity” (Journal of Medicinal Chemistry, 2023) can be followed below.

One may read the Km as the concentration of substrate that gives half-maximal velocity. A word on the kcat: it is the maximal rate divided by the concentration of active sites. By kcat/Km is commonly meant the second-order rate constant that governs catalysis at low substrate concentration.

Non-standard residues stand in square brackets, D forms with d. No end group written: not given here. Tyr(3-NO2) = N[C@@H](Cc1ccc(O)c([N+](=O)[O-])c1)C(=O)O; 2Abz = Nc1ccccc1C(=O)O

In test [1] the target is combined catalytic and disintegrin domain of ADAMTS-5 (TS5-5) (UniProt Q9UNA0).
For test [2], the target named is T1, TS5-5 (combined catalytic and disintegrin domain of ADAMTS-5) (Homo sapiens, UniProt Q9UNA0).
T1 construct: ADAMTS-5 (i.e. TS5-5, residues 264–555); FLAG; made in house; host or cells: HEK293 cells (previously transfected stocks)
T1 sequence (Q9UNA0 264-555): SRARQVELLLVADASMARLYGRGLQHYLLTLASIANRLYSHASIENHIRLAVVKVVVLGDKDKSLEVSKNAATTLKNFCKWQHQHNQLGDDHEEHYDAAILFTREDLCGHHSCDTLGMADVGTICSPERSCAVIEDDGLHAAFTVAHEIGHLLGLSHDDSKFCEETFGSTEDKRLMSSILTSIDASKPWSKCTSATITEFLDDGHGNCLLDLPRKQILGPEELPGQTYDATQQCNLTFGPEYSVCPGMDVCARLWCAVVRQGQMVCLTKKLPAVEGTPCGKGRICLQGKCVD
Put plainly: Cleavage of FRET peptide substrates by TS5-5 in solution (activity/selectivity studies). Format: biochemical. The settings on record: substrate 20 μM, TNC buffer with 0.005% (v/v) Brij-35, 37 °C; mean of 3–4 independent experiments in triplicate. The protocol: (§1) All proteinase assays were performed at 37 °C in a SpectraMax M5 spectrophotometer (Molecular Devices, San Jose, USA) using a 96-well black microplate (Greiner bio-one, Stonehouse, UK) unless otherwise stated. […] N-TIMP-3 was purified as described previously[30] and CT-1746 was a gift from Dr. Yoshifumi Itoh (Kennedy Institute of Rheumatology, University of Oxford). All analyses were carried out using Prism 9 software (GraphPad, La Jolla, CA, USA).
To test whether active TS5-5 had been purified, three concentrations of proteinase were assayed. A solution of Abz-TESE↓SRGAIY-Dpa-KK-NH2 (22.22 μM) in freshly prepared TNC buffer with 0.02% (v/v) Brij-35 (180 μL) was added to a 96-well black microplate in triplicate for each proteinase concentration. A substrate-only background control was also added in triplicate (180 μL). The resultant solutions were incubated at 37 °C (30 min). TS5-5 proteinase in TNC buffer with 0.02% (v/v) Brij-35 (20 μL) was added to wells to give final proteinase concentrations of 80 nM, 40 nM and 20 nM. TNC buffer with 0.02% (v/v) Brij-35 (20 μL) was also added to background control wells. The change in RFU was measured at 37 °C for 1 h, with readings every 20 s. Following subtraction of background fluorescence intensity, linear regression analysis of the linear part of each curve was used to determine the cleavage rate, which was expressed as the mean ± SEM in RFU s^–1. For cases where a single concentration of TS5-5 or TS4-4 was assayed, the same procedure was used but with 0.005% (v/v) Brij-35 and using the 5-FAM-AE↓LQGRPISIAK-TAMRA substrate for TS4-4 (0.56 μM). To convert cleavage rates to nM s^–1 nM^–1, the rate in RFU s^–1 was divided by the final concentration of proteinase (nM), then divided by the gradient of the calibration curve for Abz or 5-FAM (expressed in RFU nM^–1).
(§2) Selectivity studies are described for Abz-TESE↓SRGAIY-Dpa-KK-NH2, the library parent peptide 3, and hit peptides 18–26. A solution of Abz-TESE↓SRGAIY-Dpa-KK-NH2 (22.22 μM) in freshly prepared TNC buffer with 0.005% (v/v) Brij-35 (90 μL) was added to a 96-well clear bottom microplate (Greiner bio-one, Stonehouse, UK) in triplicate. A substrate-only background control was also added in triplicate (90 μL). The resultant solutions were incubated at 37 °C (30 min). An ADAMTS or MMP proteinase was added to substrate wells (10 μL) to give a final proteinase concentration of either 50–90 nM (TS4-4), 25–200 nM (TS5-5), 5–10 nM (MMP-2ΔC), 30 nM (MMP-9ΔC), 92 nM (MMP-1), or 3 μM (MMP-3). TNC buffer with 0.005% (v/v) Brij-35 was added to substrate-only control wells (10 μL). The relative fluorescence intensity was measured at 37 °C for 1 h with readings every 20 s. Activity was read from underneath the microplate, which was covered with a low evaporation lid. […] For each ADAMTS and MMP proteinase, the assay was performed 2–4 times. […] Final rates were expressed as a percentage of substrate cleavage by TS5-5 (mean ± SEM) or in μM s^–1 μM^–1 of proteinase.

The test system of test [3] is MMP-9ΔC (catalytic domain of MMP-9). Put plainly: Selectivity studies: cleavage of FRET peptide substrates by MMP-9ΔC. Format: biochemical. The settings on record: substrate 20 μM, after 48 h at an MMP-9 concentration of 30 nM, 37 °C. The protocol: as §1, §2
For the next test, the target named is T2, TS5-5 (ADAMTS-5) (Homo sapiens, UniProt Q9UNA0).
T2 construct: ADAMTS-5 (i.e. TS5-5, residues 264–555); FLAG; made in house; host or cells: HEK293 cells (previously transfected stocks)
T2 sequence (Q9UNA0 264-555): T1 sequence (Q9UNA0 264-555)
Nature of the test: Determination of kinetic parameters (kcat and Km) for substrate cleavage by TS5-5, inner-filter corrected. The settings on record: for decrease in Km compared to the current substrate / lower catalytic rate constant (kcat) compared to the current substrate: TS5-5. In kind it is biochemical. Here is the method: A solution of Abz-TESE↓SRGAIY-Dpa-KK-NH2/3/26 (5 mM) or 19/23 (1 mM) in DMSO underwent a 2-fold serial dilution with freshly prepared TNC buffer containing 0.005% (v/v) Brij-35. This gave initial concentrations in the following range: 222.22 to 0.87 μM (Abz-TESE↓SRGAIY-Dpa-KK-NH2/3/23/26) and 177.78 to 1.39 μM (19). Eight substrate concentrations (180 μL) within these ranges (including outer numbers) were added to a 96-well black microplate in triplicate and incubated at 37 °C (20 min). TNC buffer with 0.005% (v/v) Brij-35 was added to substrate-only control wells in a single replicate (180 μL). TS5-5 proteinase was thawed from −80 or −20 °C, made up in TNC buffer with 0.005% (v/v) Brij-35 (300 nM) and added to substrate wells (20 μL). TNC buffer was added to substrate-only control wells (20 μL). Fluorescence intensity was measured at 37 °C for 1 h with readings every 20 s. The rate of substrate cleavage was determined at each substrate concentration and expressed as the mean ± SEM in μM s^–1. The subsequent data was fitted to the Michaelis–Menten eq 2: [drawing 2] 2 where v is the rate of the reaction, Vmax is the maximal rate of the reaction, Km is the Michaelis constant, and [S] is the substrate concentration. This equation enabled the Km value to be determined. The catalytic rate constant kcat was determined from eq 3: [drawing 3] 3 where [E] is the concentration of proteinase, and kcat and Vmax are as defined previously. These initial Km and kcat parameters were determined from n = 3–4 independent experiments with final values for these parameters reported after a correction for the inner-filter effect.
This was performed based on the protocol described in Liu et al.([40]) to correct for quenching of the released Abz fluorophore by uncleaved substrate. Two sets of initial substrate concentrations were prepared as described in the previous section. Both sets of substrate concentrations (180 μL) were added to a 96-well black microplate in triplicate. Two buffer-alone controls with TNC buffer containing 0.005% (v/v) Brij-35 (180 μL) were also added in triplicate. All solutions were incubated at 37 °C (20 min). Abz fluorophore (1 M) in DMSO was serially diluted to 1 mM in DMSO, before further dilution to 100 μM using TNC buffer containing 0.005% (v/v) Brij-35. TNC buffer containing 0.005% (v/v) Brij-35 (20 μL) was added to the first set of substrate concentrations as well as to the first buffer-alone control. Abz fluorophore (20 μL, 100 μM) was added to the second set of substrate concentrations as well as the second buffer-alone control. The end-point fluorescence intensity was measured at 37 °C using λex = 300 nm and λem = 430 nm. At each substrate concentration, […] to give the actual fluorescence of the Abz fluorophore (RFUAbz). These values were divided by RFUAbz at a substrate concentration of 0 μM to give the correction factor for each concentration. The rates for each substrate concentration described in the previous section were divided by their respective correction factors (Tables S6–S10) to deliver the inner-filter corrected kcat and Km values.

The target of another test is T3, TS4-4 (ADAMTS-4) (Homo sapiens, UniProt O75173).
T3 construct: TS4-4, TS5-5 = catalytic and disintegrin domains; made in house; host or cells: HEK293 cells (previously transfected stocks)
T3 sequence (O75173 213-519 limits assumed): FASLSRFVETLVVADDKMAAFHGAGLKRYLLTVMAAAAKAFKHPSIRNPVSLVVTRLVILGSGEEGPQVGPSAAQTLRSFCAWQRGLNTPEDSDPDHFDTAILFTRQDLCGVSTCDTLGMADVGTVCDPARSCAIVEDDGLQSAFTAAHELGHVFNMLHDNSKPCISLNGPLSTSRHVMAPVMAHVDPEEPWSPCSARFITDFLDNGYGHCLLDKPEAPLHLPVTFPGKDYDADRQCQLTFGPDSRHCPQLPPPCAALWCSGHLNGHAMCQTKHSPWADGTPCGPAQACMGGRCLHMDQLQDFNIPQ
Nature of the test: Selectivity studies: cleavage of FRET peptide substrates by TS4-4. Format: biochemical. The settings on record: substrate 20 μM, TS4-4 50–90 nM, TNC buffer with 0.005% (v/v) Brij-35, 37 °C; mean of 3–4 independent experiments in triplicate. Here is the method:
as §1, §2

Where [4] appears, read: TS5-5, TNC buffer with 0.005% (v/v) Brij-35, 37 °C, corrected for inner filter effect, mean ± SEM from 3–4 independent experiments in triplicate.
Where [5] appears, read: supplementary CSV copy of Table 3, TS5-5, 37 °C.

Turning to “ortho-aminobenzoyl(Abz)-TESE↓SRGAIY-N-3-[2,4-dinitrophenyl]-L-2,3-diaminopropionyl(Dpa)-KK-NH2 (peptide)”, in test [1], the Km of cleavage of the FRET peptide by TS5-5 (Michaelis-Menten fit, corrected for the inner-filter effect, 37 °C, TNC buffer with 0.005% Brij-35) is 125 µM.

As to “KY(NO2)NDTESOAK(Abz)AHFUKG [Compound 24]”, the “rate of cleavage by TS5-5” value in test [2] was 1.41 × 10^–4 μM s^–1 μM^–1. Moreover, in test [3], the “cleavage by MMP-9ΔC” value is reported as “no signs of cleavage”.

Regarding “KY(NO2)SESESRGK(Abz)IYYKKG (K[Tyr(3-NO2)]SESESRGK(Abz)IYYKKG) [Compound 23]”, in the test with TS5-5 (ADAMTS-5), the “decrease in Km compared to the current substrate” value is about 2 fold and the “lower catalytic rate constant (kcat) compared to the current substrate” value is reported as about 3 fold. Further, in the test with TS5-5 (ADAMTS-5) (setting [4]), the Km was 64.6 ± 4.6 µM, the kcat amounted to 1.14 ± 0.11 s⁻¹ and the kcat/Km is 18200 ± 2940 M⁻¹ s⁻¹. The kcat in the test with TS5-5 (ADAMTS-5) (setting [5]) was found to be 1.14 ± 0.11 s⁻¹.

“KY(NO2)TETESOAK(Abz)IYFKKG [Compound 22]”: the “rate of cleavage by TS5-5” value in test [2] is reported as 7.38 × 10^–2 μM s^–1 μM^–1.

Take “KY(NO2)TENESRGK(Abz)IYYKKG (K[Tyr(3-NO2)]TENESRGK(Abz)IYYKKG) [Compound 19]”: the “rate of cleavage by TS4-4” value in the test with TS4-4 (ADAMTS-4) is 0.08–0.10 μM s^–1 μM^–1. Besides, in the test with TS5-5 (ADAMTS-5), the “decrease in Km compared to the current substrate” value is about 4 fold and the “lower catalytic rate constant (kcat) compared to the current substrate” value was about 7 fold. Also, in the test with TS5-5 (ADAMTS-5) (setting [4]), the Km amounted to 30.5 ± 2 µM, the kcat was determined as 0.53 ± 0.014 s⁻¹ and the kcat/Km was found to be 17500 ± 1080 M⁻¹ s⁻¹. For the same molecule, the catalytic constant (kcat) in the test with TS5-5 (ADAMTS-5) (setting [5]) amounted to 0.53 ± 0.014 s⁻¹.

Turning to “KY(NO2)QDSESBAK(Abz)JHYUKG [Compound 20]”, in test [2], the “rate of cleavage by TS5-5” value is given as 1.22 × 10^–3 μM s^–1 μM^–1. Moreover, the “cleavage by MMP-9ΔC” value in test [3] is “no signs of cleavage”.

For the molecule “KY(NO2)NESESKAK(Abz)VHYKKG (K[Tyr(3-NO2)]NESESKAK(2Abz)V-{H2N-Tyr-Lys-Lys-Gly}) [Compound 25]”, the “rate of cleavage by TS5-5” value in test [2] is reported as 1.78 × 10^–2 μM s^–1 μM^–1. In test [3], the “cleavage by MMP-9ΔC” value is given as “no signs of cleavage”.

With K[Tyr(3-NO2)]TENESRGK(2Abz)IYYKKG [KY(NO2)TENESRGK(Abz)IYYKKG (19)], in test [1], the Km of cleavage of the FRET peptide by TS5-5 (Michaelis-Menten fit, corrected for the inner-filter effect, 37 °C, TNC buffer with 0.005% Brij-35) came out at 30.5 µM.

As to K[Tyr(3-NO2)]TESESRGK(2Abz)IYYKKG [KY(NO2)TESESRGK(Abz)IYYKKG (3)], the Km of cleavage of the FRET peptide by TS5-5 (Michaelis-Menten fit, corrected for the inner-filter effect, 37 °C, TNC buffer with 0.005% Brij-35) in test [1] was 29.5 µM.

On to K[Tyr(3-NO2)]SENESRGK(2Abz)IYYKKG [KY(NO2)SENESRGK(Abz)IYYKKG (26)], for which the Km of cleavage of the FRET peptide by TS5-5 (Michaelis-Menten fit, corrected for the inner-filter effect, 37 °C, TNC buffer with 0.005% Brij-35) in test [1] was 76.9 µM.
